We go through 125 sequences from the supplement of paper PMC9112550, “Optimization of the antimicrobial peptide Bac7 by deep mutational scanning” (BMC Biology, 2022).

For this data set, the system named is Escherichia coli TOP10. Nature of the data set: shrunken log2 fold change of peptide-encoding DNA abundance (4.5 h post-induction vs induction); higher = less antimicrobial activity (less host growth inhibition). The following applies: time post-induction: 4.5 h; library: site-saturation at positions 5, 18, 19, 20.
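Note: peptides expressed intracellularly from a pBAD plasmid library in pooled LB shake-flask culture, induced with 0.3% L-arabinose, DNA abundance read by NGS, three biological replicates, DESeq2 with apeglm shrinkage.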

Regarding RRIRQRPPRLPRPRPRPRMGPRP, the “shrunken log2 fold change” value is -0.0719.

Turning to RRIRYRPPRLPRPRPRPAPNPRP, the “shrunken log2 fold change” value was -0.01.

For RRIRPRPPRLPRPRPRPYRNPRP, the “shrunken log2 fold change” value was -0.558.

With RRIRKRPPRLPRPRPRPWFMPRP, the “shrunken log2 fold change” value was -0.202.

For the sequence RRIRWRPPRLPRPRPRPDSWPRP, the “shrunken log2 fold change” value turned out to be 0.251.

For the sequence RRIRGRPPRLPRPRPRPFEIPRP, the “shrunken log2 fold change” value was -0.017.

For the sequence RRIRQRPPRLPRPRPRPKNPPRP, the “shrunken log2 fold change” value is -0.26.

On to RRIRERPPRLPRPRPRPQPQPRP, for which the “shrunken log2 fold change” value is -0.0713.

Consider RRIRERPPRLPRPRPRPLSCPRP, for which the “shrunken log2 fold change” value is 0.075.

As for RRIRNRPPRLPRPRPRPSDWPRP, the “shrunken log2 fold change” value came to 0.0113.

With RRIRFRPPRLPRPRPRPYRNPRP, the “shrunken log2 fold change” value is -0.00237.

RRIRCRPPRLPRPRPRPQLSPRP: the “shrunken log2 fold change” value was found to be 0.122.

For RRIRPRPPRLPRPRPRPPSPPRP, the “shrunken log2 fold change” value amounted to 0.439.

On to RRIRVRPPRLPRPRPRPDGIPRP, for which the “shrunken log2 fold change” value is -0.173.

With RRIRERPPRLPRPRPRPHYWPRP, the “shrunken log2 fold change” value is -0.353.

Regarding RRIRQRPPRLPRPRPRPRTWPRP, the “shrunken log2 fold change” value is -0.182.

For RRIRMRPPRLPRPRPRPNVRPRP, the “shrunken log2 fold change” value amounted to 0.0272.

With RRIRQRPPRLPRPRPRPNRWPRP, the “shrunken log2 fold change” value is -0.0161.

On to RRIRPRPPRLPRPRPRPNYLPRP, for which the “shrunken log2 fold change” value is -0.0996.

As to RRIRGRPPRLPRPRPRPPMLPRP, the “shrunken log2 fold change” value amounted to 0.555.

RRIRERPPRLPRPRPRPRCCPRP: the “shrunken log2 fold change” value was -0.234.

Turning to RRIRKRPPRLPRPRPRPGPPPRP, the “shrunken log2 fold change” value came to 0.922.

Take RRIRWRPPRLPRPRPRPRRGPRP: the “shrunken log2 fold change” value amounted to 0.528.

As to RRIRIRPPRLPRPRPRPKAEPRP, the “shrunken log2 fold change” value came to 0.124.

For RRIRTRPPRLPRPRPRPQQGPRP, the “shrunken log2 fold change” value is -0.238.

Take RRIRDRPPRLPRPRPRPDITPRP: the “shrunken log2 fold change” value was 0.282.

As to RRIRGRPPRLPRPRPRPCRYPRP, the “shrunken log2 fold change” value was 0.24.

On to RRIRMRPPRLPRPRPRPDKVPRP, for which the “shrunken log2 fold change” value came to 0.359.

On to RRIRFRPPRLPRPRPRPTHRPRP, for which the “shrunken log2 fold change” value is -0.0781.

With RRIRMRPPRLPRPRPRPQTNPRP, the “shrunken log2 fold change” value was determined as 0.462.

Take RRIRHRPPRLPRPRPRPNLNPRP: the “shrunken log2 fold change” value is -0.786.

Consider RRIRERPPRLPRPRPRPFFEPRP, for which the “shrunken log2 fold change” value is -0.0766.

As to RRIRQRPPRLPRPRPRPFTVPRP, the “shrunken log2 fold change” value is -0.0315.

In the case of RRIRYRPPRLPRPRPRPLHWPRP, the “shrunken log2 fold change” value is -0.211.

Turning to RRIRTRPPRLPRPRPRPYSTPRP, the “shrunken log2 fold change” value was -0.0702.

RRIRDRPPRLPRPRPRPRQAPRP: the “shrunken log2 fold change” value turned out to be 0.102.

As for RRIRHRPPRLPRPRPRPVPTPRP, the “shrunken log2 fold change” value was found to be 0.144.

With RRIRARPPRLPRPRPRPQDTPRP, the “shrunken log2 fold change” value was -0.179.

For the sequence RRIRYRPPRLPRPRPRPERFPRP, the “shrunken log2 fold change” value was found to be 0.0461.

Turning to RRIRARPPRLPRPRPRPKNQPRP, the “shrunken log2 fold change” value is 0.249.

On to RRIRMRPPRLPRPRPRPSGMPRP, for which the “shrunken log2 fold change” value was found to be 0.03.

With RRIRARPPRLPRPRPRPNFWPRP, the “shrunken log2 fold change” value came out at 0.352.

In the case of RRIRCRPPRLPRPRPRPHLSPRP, the “shrunken log2 fold change” value is -0.147.

For RRIRIRPPRLPRPRPRPAHAPRP, the “shrunken log2 fold change” value is -0.0674.

As for RRIRERPPRLPRPRPRPQKYPRP, the “shrunken log2 fold change” value is -1.15.

As for RRIRLRPPRLPRPRPRPRKYPRP, the “shrunken log2 fold change” value was -0.882.

In the case of RRIRMRPPRLPRPRPRPCSEPRP, the “shrunken log2 fold change” value turned out to be 0.514.

In the case of RRIRWRPPRLPRPRPRPIWTPRP, the “shrunken log2 fold change” value was 0.107.

For the sequence RRIRRRPPRLPRPRPRPNTSPRP, the “shrunken log2 fold change” value was -0.116.

For the sequence RRIRWRPPRLPRPRPRPRHHPRP, the “shrunken log2 fold change” value is -0.0574.

Consider RRIRLRPPRLPRPRPRPLPEPRP, for which the “shrunken log2 fold change” value is 0.39.

Consider RRIRARPPRLPRPRPRPWANPRP, for which the “shrunken log2 fold change” value is 0.201.

RRIRRRPPRLPRPRPRPVLPPRP: the “shrunken log2 fold change” value is 0.584.

As to RRIRVRPPRLPRPRPRPMCYPRP, the “shrunken log2 fold change” value is -0.306.

With RRIRKRPPRLPRPRPRPTCKPRP, the “shrunken log2 fold change” value came to 0.347.

Consider RRIRIRPPRLPRPRPRPWHCPRP, for which the “shrunken log2 fold change” value is -0.0926.

On to RRIRHRPPRLPRPRPRPNKTPRP, for which the “shrunken log2 fold change” value was -0.0741.

As to RRIRFRPPRLPRPRPRPPLWPRP, the “shrunken log2 fold change” value turned out to be 0.46.

Turning to RRIRNRPPRLPRPRPRPFWNPRP, the “shrunken log2 fold change” value was -0.151.

For RRIRYRPPRLPRPRPRPLEVPRP, the “shrunken log2 fold change” value was -0.335.

With RRIRFRPPRLPRPRPRPKCAPRP, the “shrunken log2 fold change” value was -0.0345.

For the sequence RRIRCRPPRLPRPRPRPSMYPRP, the “shrunken log2 fold change” value is -0.418.

As for RRIRSRPPRLPRPRPRPQGKPRP, the “shrunken log2 fold change” value is 0.0304.

On to RRIRPRPPRLPRPRPRPIGRPRP, for which the “shrunken log2 fold change” value is -0.0114.

Consider RRIRERPPRLPRPRPRPQFDPRP, for which the “shrunken log2 fold change” value was -0.111.

In the case of RRIRCRPPRLPRPRPRPCLNPRP, the “shrunken log2 fold change” value is -0.589.

With RRIRQRPPRLPRPRPRPHVDPRP, the “shrunken log2 fold change” value is -0.088.

For the sequence RRIRKRPPRLPRPRPRPHSSPRP, the “shrunken log2 fold change” value stood at 0.0945.

Regarding RRIRNRPPRLPRPRPRPALHPRP, the “shrunken log2 fold change” value is -0.296.

With RRIRHRPPRLPRPRPRPDHTPRP, the “shrunken log2 fold change” value was -0.307.

As to RRIRHRPPRLPRPRPRPLMYPRP, the “shrunken log2 fold change” value is -0.711.

With RRIRTRPPRLPRPRPRPFYMPRP, the “shrunken log2 fold change” value was -0.369.

As for RRIRPRPPRLPRPRPRPGLFPRP, the “shrunken log2 fold change” value came out at 0.162.

As for RRIRNRPPRLPRPRPRPMTPPRP, the “shrunken log2 fold change” value amounted to 0.244.

On to RRIRGRPPRLPRPRPRPQHTPRP, for which the “shrunken log2 fold change” value is 0.588.

For RRIRYRPPRLPRPRPRPTINPRP, the “shrunken log2 fold change” value was -1.41.

As to RRIRRRPPRLPRPRPRPRFSPRP, the “shrunken log2 fold change” value was found to be 0.425.

For the sequence RRIRWRPPRLPRPRPRPDVIPRP, the “shrunken log2 fold change” value was -0.118.

As for RRIRVRPPRLPRPRPRPDYHPRP, the “shrunken log2 fold change” value is -0.558.

Regarding RRIRCRPPRLPRPRPRPKHKPRP, the “shrunken log2 fold change” value was -0.164.

In the case of RRIRSRPPRLPRPRPRPKETPRP, the “shrunken log2 fold change” value was -0.0164.

RRIRDRPPRLPRPRPRPCLGPRP: the “shrunken log2 fold change” value is -0.015.

RRIRSRPPRLPRPRPRPLLMPRP: the “shrunken log2 fold change” value came to 0.128.

For the sequence RRIRYRPPRLPRPRPRPRQCPRP, the “shrunken log2 fold change” value was -0.0146.

Consider RRIRGRPPRLPRPRPRPAEQPRP, for which the “shrunken log2 fold change” value came out at 1.25.

As to RRIRLRPPRLPRPRPRPCYLPRP, the “shrunken log2 fold change” value is -0.856.

In the case of RRIRSRPPRLPRPRPRPLYMPRP, the “shrunken log2 fold change” value was -1.

Regarding RRIRNRPPRLPRPRPRPRCPPRP, the “shrunken log2 fold change” value was -0.0521.

On to RRIRTRPPRLPRPRPRPSVQPRP, for which the “shrunken log2 fold change” value was -0.0749.

Take RRIRLRPPRLPRPRPRPAQPPRP: the “shrunken log2 fold change” value was 0.0855.

For the sequence RRIRTRPPRLPRPRPRPGQDPRP, the “shrunken log2 fold change” value was -0.102.

Consider RRIRMRPPRLPRPRPRPLSTPRP, for which the “shrunken log2 fold change” value came out at 0.0164.

On to RRIRKRPPRLPRPRPRPPWSPRP, for which the “shrunken log2 fold change” value was found to be 0.154.

As for RRIRNRPPRLPRPRPRPGITPRP, the “shrunken log2 fold change” value was -0.326.

For the sequence RRIRMRPPRLPRPRPRPRINPRP, the “shrunken log2 fold change” value worked out at 0.19.

As to RRIRMRPPRLPRPRPRPDQSPRP, the “shrunken log2 fold change” value is 0.0283.

For RRIRVRPPRLPRPRPRPHDLPRP, the “shrunken log2 fold change” value was -0.226.

In the case of RRIRDRPPRLPRPRPRPWNAPRP, the “shrunken log2 fold change” value was found to be 0.0296.

RRIRIRPPRLPRPRPRPFWKPRP: the “shrunken log2 fold change” value came to 0.0187.

Take RRIRFRPPRLPRPRPRPVQCPRP: the “shrunken log2 fold change” value was 0.0456.

In the case of RRIRERPPRLPRPRPRPCAMPRP, the “shrunken log2 fold change” value was -0.0091.

As for RRIRERPPRLPRPRPRPNYSPRP, the “shrunken log2 fold change” value is -0.63.

In the case of RRIRIRPPRLPRPRPRPHNVPRP, the “shrunken log2 fold change” value is -0.414.

With RRIRQRPPRLPRPRPRPSQGPRP, the “shrunken log2 fold change” value was determined as 4.77e-05.

RRIRVRPPRLPRPRPRPCMPPRP: the “shrunken log2 fold change” value is 0.112.

As to RRIRVRPPRLPRPRPRPGWIPRP, the “shrunken log2 fold change” value is 0.486.

For RRIRCRPPRLPRPRPRPFWSPRP, the “shrunken log2 fold change” value is -0.331.

For RRIRQRPPRLPRPRPRPNCLPRP, the “shrunken log2 fold change” value is -0.0533.

RRIRDRPPRLPRPRPRPPHGPRP: the “shrunken log2 fold change” value is 0.294.

As to RRIRNRPPRLPRPRPRPWKGPRP, the “shrunken log2 fold change” value was -0.0198.

In the case of RRIRWRPPRLPRPRPRPKAIPRP, the “shrunken log2 fold change” value is -0.00613.

For RRIRYRPPRLPRPRPRPIHRPRP, the “shrunken log2 fold change” value was -0.0635.

Consider RRIRTRPPRLPRPRPRPPYKPRP, for which the “shrunken log2 fold change” value is -0.294.

Turning to RRIRARPPRLPRPRPRPMNEPRP, the “shrunken log2 fold change” value was 0.374.

As to RRIRGRPPRLPRPRPRPNAPPRP, the “shrunken log2 fold change” value worked out at 0.938.

For the sequence RRIRDRPPRLPRPRPRPHESPRP, the “shrunken log2 fold change” value is -0.0121.

For RRIRKRPPRLPRPRPRPCLPPRP, the “shrunken log2 fold change” value was 0.0253.

For RRIRTRPPRLPRPRPRPYYYPRP, the “shrunken log2 fold change” value was -1.2.

For the sequence RRIRNRPPRLPRPRPRPINKPRP, the “shrunken log2 fold change” value was -0.56.

For RRIRARPPRLPRPRPRPKWCPRP, the “shrunken log2 fold change” value amounted to 0.321.

Consider RRIRVRPPRLPRPRPRPDHFPRP, for which the “shrunken log2 fold change” value was -0.0417.

Turning to RRIRHRPPRLPRPRPRPVLYPRP, the “shrunken log2 fold change” value was -0.317.

Regarding RRIRPRPPRLPRPRPRPKVWPRP, the “shrunken log2 fold change” value worked out at 0.318.

For RRIRYRPPRLPRPRPRPHVWPRP, the “shrunken log2 fold change” value was 0.0773.

As to RRIRCRPPRLPRPRPRPSNRPRP, the “shrunken log2 fold change” value is -0.253.
